In article PMC8789040, “Directed evolution of orthogonal RNA–RBP pairs through library-vs-library in vitro selection”:

Experiments:
Conditions in all cases: protein: recombinant, tags: N-term Twin-Strep-tag, C-term 6xHis
dL7Ae [1] = biological target: dL7Ae (Archaeoglobus fulgidus (printed A. …, UniProt O29494 1-119, E34K;K37E;R41E;I88G;E89G;V90G;P91G;C92S)); experiment: SPR; SPR: 10 mM HEPES pH 7.4, 150 mM NaCl, 1 mM MgCl2, 0.05% P20, 0.25 mM TCEP, 0.1 mg/ml BSA, 25 ug/ml yeast tRNA, 25 C; EMSA: 10 mM HEPES-KOH pH 7.5, 140 mM KCl, 10 mM NaCl, 1 mM MgCl2, 0.1 mM TCEP, 0.01% Tween-20, 10 ug/ml yeast tRNA (1x of the printed 5x buffer)
L7Ae [2] = biological target: L7Ae (Archaeoglobus fulgidus (printed A. …, UniProt O29494 1-119)); experiment: as above
L7Ae [3] = biological target: L7Ae (Archaeoglobus fulgidus, UniProt O29494 2-119); experiment: SPR (Biacore T200, RNA captured, protein analyte); SPR running buffer: 10 mM HEPES pH 7.4, 150 mM NaCl, 0.05% Surfactant P20, 1 mM MgCl2, 0.25 mM TCEP, 0.1 mg/ml BSA, 25 ug/ml yeast tRNA, 25 C; RNA captured by its 3' docking sequence on biotinylated 2'-OMe RNA
dL7Ae [4] = biological target: dL7Ae (Archaeoglobus fulgidus, UniProt O29494 2-119, E34K;K37E;R41E;I88G;E89G;V90G;P91G;C92S); experiment: as above
Sequence of dL7Ae (O29494 2-119 E34K/K37E/R41E/I88G/E89G/V90G/P91G/C92S): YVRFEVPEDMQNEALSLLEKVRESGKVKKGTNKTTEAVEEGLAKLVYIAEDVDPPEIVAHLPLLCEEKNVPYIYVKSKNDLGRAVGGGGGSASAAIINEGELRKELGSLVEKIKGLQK

Sequence of L7Ae (Archaeoglobus fulgidus (O29494 whole entry): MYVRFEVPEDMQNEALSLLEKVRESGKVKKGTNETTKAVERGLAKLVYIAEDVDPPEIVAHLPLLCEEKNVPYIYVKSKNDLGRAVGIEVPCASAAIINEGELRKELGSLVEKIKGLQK
Sequence of L7Ae (O29494 2-119): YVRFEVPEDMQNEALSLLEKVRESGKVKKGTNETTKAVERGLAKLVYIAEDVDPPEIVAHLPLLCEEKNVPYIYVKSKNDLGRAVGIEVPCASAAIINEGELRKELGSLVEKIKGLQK
Sequence of dL7Ae (Archaeoglobus fulgidus (O29494 whole entry E34K/K37E/R41E/I88G/E89G/V90G/P91G/C92S): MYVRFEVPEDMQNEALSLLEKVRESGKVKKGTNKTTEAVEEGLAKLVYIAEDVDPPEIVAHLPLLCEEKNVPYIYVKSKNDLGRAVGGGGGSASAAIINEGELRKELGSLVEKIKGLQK

B1: dKt (dKt_SPR) (structured_RNA)
RNA: GGCUGGGGCGUCAUCCGAAAGGUGCCCCAGCCAAAUCGACGAAAGACACAGAACG
dL7Ae [1]; hairpin, defective kink-turn
  binding result: no binding
L7Ae [2]; hairpin, defective kink-turn
  binding result: no binding
L7Ae [3]; hairpin, defective kink-turn
  binding result: no binding
dL7Ae [4]; hairpin, defective kink-turn
  binding result: no binding

B2: Box C/D Kt (Kt_SPR) (structured_RNA)
RNA: GGAUCGCGUGAUCCGAAAGGUGACGAUCCAAAUCGACGAAAGACACAGAACG
dL7Ae [1]; hairpin with kink-turn
  binding result: no binding
L7Ae [2]; hairpin with kink-turn
  Kd: 0.0213 nM
L7Ae [3]; hairpin with kink-turn
  Kd: 0.0213 nM
dL7Ae [4]; hairpin with kink-turn
  binding result: no binding

B3: CS1-M1 (structured_RNA)
RNA: GGUGGCUGAGAAAGGCGAAAGCCUUGUGAUGCCAUCAAAUCGACGAAAGACACAGAACG
L7Ae [2]; hairpin
  Kd: 1.81 nM

B4: CS1-M2a (structured_RNA)
RNA: GGUGGCAUAGAAAGGCGAAAGCCUUGUGAGGCCAUCAAAUCGACGAAAGACACAGAACG
L7Ae [3]
  binding result: binds

B5: CS1 (structured_RNA)
RNA: GGUGGCAGAGAAAGGCGAAAGCCUUGUGAGGCCAUCAAAUCGACGAAAGACACAGAACG
L7Ae [2]; hairpin, internal loop
  Kd: 1.49 nM

B6: CS1-M3 (structured_RNA)
RNA: GGUGGCAGUGAAAGGCGAAAGCCUUGUUAGGCCAUCAAAUCGACGAAAGACACAGAACG
L7Ae [3]
  binding result: no binding

B7: CS1-M2c (structured_RNA)
RNA: GGUGGCAGAGAAAGGCGAAAGCCUUGUGUGGCCAUCAAAUCGACGAAAGACACAGAACG
L7Ae [3]
  binding result: binds

B8: CS1-M2 (structured_RNA)
RNA: GGUGGCAUAGAAAGGCGAAAGCCUUGUGUGGCCAUCAAAUCGACGAAAGACACAGAACG
L7Ae [3]
  binding result: no binding

B9: CS1-M2b (structured_RNA)
RNA: GGUGGCAAAGAAAGGCGAAAGCCUUGUGAGGCCAUCAAAUCGACGAAAGACACAGAACG
L7Ae [3]
  binding result: binds

B10: CS2 (structured_RNA)
RNA: GGAUGCAGAGAACGAAAGUUCCAUGACGCAUCCAAAUCGACGAAAGACACAGAACG
L7Ae [2]; hairpin, asymmetric internal loop (putative kink-turn)
  Kd: 0.00571 nM

B11: CS2-M2 (structured_RNA)
RNA: GGAUGCAGCGAACGAAAGUUCCAUGACGCAUCCAAAUCGACGAAAGACACAGAACG
L7Ae [3]
  binding result: no binding

B12: CS2-M4 (structured_RNA)
RNA: GGAUGCAGAGAACGAAAGUUCCAUGCCGCAUCCAAAUCGACGAAAGACACAGAACG
L7Ae [3]
  binding result: binds

B13: CS2-M3 (structured_RNA)
RNA: GGAUGCAGAGAACGAAAGUUCCAUUACGCAUCCAAAUCGACGAAAGACACAGAACG
L7Ae [2]; hairpin
  Kd: 200 nM

B14: CS2-M1 (structured_RNA)
RNA: GGAUGCAAAGAACGAAAGUUCCAUGACGCAUCCAAAUCGACGAAAGACACAGAACG
L7Ae [3]
  binding result: binds
